Common to all, as to experiment: SEC-MALS
(In general: SEC sorts molecules by how far they enter the pores of the column.)

Assay [1] concerns the target cyanide dihydratase CynD from Bacillus safensis PER-URP-08 (Bacillus safensis PER-URP-08) (UniProt P0DXY3).
The target is the same in assay [2]. This is another data set of the same source.
Assay [3] shares this target. This is another data set of the same source.

The source of these data is article doi:10.1101/2021.11.27.470173.

Read-outs that look alike come from different tables or passages of the source.

The term stoichiometry N denotes the number of molecules, sites or subunits per partner or assembly. As for “cyanide dihydratase CynD from Bacillus safensis PER-URP-08 (from UniProt P0DXY3 1-330) (enzyme)”, the results for the stoichiometry N in assay [1], in assay [2] and in assay [3] were 24 to 48 mer, 3 to 5 mer and 4 to 6 mer, respectively.
